These results are taken from article PMC9810080.

Assay [1] deals with CaM1 peptide, CNGB1 residues 565–589 (UniProt Q14028). Nature of the assay: ITC. On the technique in general: Isothermal titration calorimetry measures the heat released or taken up as one component is titrated into another.
Assay [2] deals with CaM2 peptide, CNGB1 residues 1120–1147 (UniProt Q14028). The assay is described as follows: ITC.
Chain of CaM2 peptide, CNGB1 residues 1120–1147 (Q14028 1120-1147): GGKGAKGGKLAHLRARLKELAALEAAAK

Chain of CaM1 peptide, CNGB1 residues 565–589 (Q14028 565-589): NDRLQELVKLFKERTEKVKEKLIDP

The term stoichiometry N denotes a count of units in the complex or per binding partner. As to “Calmodulin (CaM), full-length (from UniProt P0DP23 1-149) (natural protein)”, in assay [1], the Kd of the endothermic site (two-site fit) was determined as 240 µM, the apparent Kd of the exothermic site (two-site fit) came to 1 µM, the dH1 (site 1 of the two-site fit) is -7.5 kcal/mol and the stoichiometry N was 2 CaM1 per CaM. Besides, in assay [2], the dH came out at 2.1 kcal/mol, the dH1 (site 1 of the two-site fit) is -4.5 kcal/mol and the stoichiometry N came to 2 CaM2 per CaM.
